Results taken from patent publication US20200317768A1 (published 2020).

T1: cynomolgus monkey FcγRIIIaS extracellular domain with C-terminal His-tag (cynomolgus monkey, UniProt Q8SPW2 21-206 at identity 1.00))
T1 construct: also called cyno FcgRIIIaS; cynoFcγRIIIaS
T1 chain: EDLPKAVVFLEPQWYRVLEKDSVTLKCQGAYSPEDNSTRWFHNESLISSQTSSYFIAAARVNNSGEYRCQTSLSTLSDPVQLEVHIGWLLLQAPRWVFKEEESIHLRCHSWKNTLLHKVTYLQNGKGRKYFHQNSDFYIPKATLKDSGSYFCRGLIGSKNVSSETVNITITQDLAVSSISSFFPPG

T2: human FcγRIIaR extracellular domain with C-terminal His-tag (human, UniProt P12318 34-217)
T2 construct: also called human FcgRIIaR; FcγRIIa (type R)
T2 chain: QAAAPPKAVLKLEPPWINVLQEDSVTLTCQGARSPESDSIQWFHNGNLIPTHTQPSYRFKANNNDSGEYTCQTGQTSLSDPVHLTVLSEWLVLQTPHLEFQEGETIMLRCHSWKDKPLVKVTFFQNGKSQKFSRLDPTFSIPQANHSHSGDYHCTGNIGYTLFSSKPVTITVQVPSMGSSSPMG

T3: cynomolgus monkey FcγRIIb extracellular domain with C-terminal His-tag (cynomolgus monkey)
T3 construct: also called cyno FcgRIIb; cynoFcγRIIb
T3 chain: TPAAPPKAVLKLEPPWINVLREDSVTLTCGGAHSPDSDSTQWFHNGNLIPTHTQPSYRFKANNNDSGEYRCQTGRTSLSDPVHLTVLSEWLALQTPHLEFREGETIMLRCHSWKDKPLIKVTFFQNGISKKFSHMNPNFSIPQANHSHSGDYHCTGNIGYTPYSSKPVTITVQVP

T4: cynomolgus monkey FcγRIIa2 extracellular domain with C-terminal His-tag (cynomolgus monkey)
T4 construct: also called cyno FcgRIIa2; cynoFcγRIIa2
T4 chain: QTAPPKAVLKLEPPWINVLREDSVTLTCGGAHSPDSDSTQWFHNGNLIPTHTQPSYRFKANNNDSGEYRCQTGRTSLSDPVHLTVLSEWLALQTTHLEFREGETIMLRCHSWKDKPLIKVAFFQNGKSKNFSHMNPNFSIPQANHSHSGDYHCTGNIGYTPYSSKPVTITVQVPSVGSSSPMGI

T5: cynomolgus monkey FcγRIIa1 extracellular domain with C-terminal His-tag (cynomolgus monkey)
T5 construct: also called cyno FcgRIIa1; cynoFcγRIIa1
T5 chain: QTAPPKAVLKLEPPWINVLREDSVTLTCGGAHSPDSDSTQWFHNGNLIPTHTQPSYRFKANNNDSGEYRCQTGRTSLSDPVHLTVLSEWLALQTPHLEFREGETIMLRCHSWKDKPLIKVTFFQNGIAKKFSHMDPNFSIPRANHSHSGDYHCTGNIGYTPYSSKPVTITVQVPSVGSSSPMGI

T6: human FcγRIIb extracellular domain with C-terminal His-tag (human, UniProt P31994 43-217)
T6 construct: also called human FcgRIIb
T6 sequence: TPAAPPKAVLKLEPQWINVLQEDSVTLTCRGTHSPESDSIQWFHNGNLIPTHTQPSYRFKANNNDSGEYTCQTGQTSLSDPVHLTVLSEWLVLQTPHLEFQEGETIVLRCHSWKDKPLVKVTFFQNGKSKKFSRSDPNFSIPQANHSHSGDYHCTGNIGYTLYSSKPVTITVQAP

T7: human FcγRIIaH extracellular domain with C-terminal His-tag (human, UniProt P12318 34-217)
T7 construct: also called human FcgRIIaH; FcγRIIa (type H)
T7 sequence: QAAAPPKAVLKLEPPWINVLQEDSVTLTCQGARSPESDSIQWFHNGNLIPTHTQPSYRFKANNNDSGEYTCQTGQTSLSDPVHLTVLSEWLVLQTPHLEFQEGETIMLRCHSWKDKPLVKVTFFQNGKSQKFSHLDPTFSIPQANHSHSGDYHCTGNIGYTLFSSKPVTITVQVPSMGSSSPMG


Key:
[1] = molecular target: T1, cynomolgus monkey FcγRIIIaS …; experiment: SPR (BIACORE), antibody captured, FcgR analyte
[2] = molecular target: T2, human FcγRIIaR extracellular domain …; experiment: SPR (BIACORE); KD of SG1 / KD of variant;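 further: relative to parent M103205H795-SG1 carrying the SG1 human heavy chain constant region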
[3] = molecular target: T3, cynomolgus monkey FcγRIIb extracellular …; experiment: SPR (BIACORE); KD of SG1 / KD of variant;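 further: relative to parent M103205H795-SG1 carrying the SG1 human heavy chain constant region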
[4] = molecular target: T4, cynomolgus monkey FcγRIIa2 …; experiment: SPR (BIACORE); KD of SG1 / KD of variant;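 further: relative to parent M103205H795-SG1 carrying the SG1 human heavy chain constant region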
[5] = molecular target: T5, cynomolgus monkey FcγRIIa1 …; experiment: SPR (BIACORE); KD of SG1 / KD of variant;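 further: relative to parent M103205H795-SG1 carrying the SG1 human heavy chain constant region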
[6] = molecular target: T1, cynomolgus monkey FcγRIIIaS …; experiment: SPR (BIACORE); KD of SG1 / KD of variant
[7] = molecular target: T6, human FcγRIIb extracellular domain with …; experiment: SPR (BIACORE); KD of SG1 / KD of variant
[8] = molecular target: T7, human FcγRIIaH extracellular domain …; experiment: SPR (BIACORE); KD of SG1 / KD of variant
[9] = molecular target: T8, human FcγRIIIaV extracellular domain with C-terminal His-tag (human, UniProt P08637 17-208); experiment: SPR (BIACORE); KD of SG1 / KD of variant
T8 construct: also called human FcgRIIIaV
T8 sequence (P08637 17-208 F176V): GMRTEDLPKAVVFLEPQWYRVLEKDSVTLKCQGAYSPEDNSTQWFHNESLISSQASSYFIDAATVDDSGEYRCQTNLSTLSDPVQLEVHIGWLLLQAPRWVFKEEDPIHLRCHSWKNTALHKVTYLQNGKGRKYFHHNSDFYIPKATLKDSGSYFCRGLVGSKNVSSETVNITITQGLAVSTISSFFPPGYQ

Row | Kd [1] | KD fold (SG1 = 1) [2] | KD fold (SG1 = 1) [3] | KD fold (SG1 = 1) [4] | KD fold (SG1 = 1) [5] | KD fold (SG1 = 1) [6] | KD fold (SG1 = 1) [7] | KD fold (SG1 = 1) [8] | KD fold (SG1 = 1) [9] | Binder
1 | 2500 nM | 3.5 fold | 2.2 fold | 2.7 fold | 1.4 fold | 0.14 fold | 2.5 fold | 2.5 fold | 0.17 fold | M103205H795-MY387/M103202L889-SK1 (antibody, human IgG1, kappa, Substitutions introduced into M103205H795-SG1, expressed with M103202L889-SK1 as light chain; EU numbering) heavy: QVTLKESGPVLVKPTETLTLTCTVSGIDLSHDDISWVRQAPGKGLEWVGIISYAGSTYYASWAKGRLTISKDTSKNQVVLTMTNMDPVDTATYYCARGVPAYSHGGDLWGQGTLVTVSSASTKGPSVFPLAPSSKSTSGGTAALGCLVKDYFPEPVTVSWNSGALTSGVHTFPAVLQSSGLYSLSSVVTVPSSSLGTQTYICNVNHKPSNTKVDKKVEPKSCDKTHTCPPCPAPELLTGPVVFLFPPKPKDTLMISRTPEVTCVVVDVSDEDPEVKFNWYVDGVEVHNAKTKPREEQYNSTYRVVSVLTVLHQDWLNGKEYKCKVSNKALPKPIEKTISKAKGQPREPQVYTLPPSREEMTKNQVSLTCLVKGFYPSDIAVEWESNGQPENNYKTTPPVLDSDGSFFLYSKLTVDKSRWQQGNVFSCSVMHEALHNHYTQKSLSLSP light: DIVMTQSPATLSLSPGERATLSCTSSQSVYHANWLSWFQQKPGQPPKLLIYWASTLAYGVPSRFSGSGSGTDFTLTISSLQPEDAATYYCAGGYGGGRYAFGQGTKVEIKRTVAAPSVFIFPPSDEQLKSGTASVVCLLNNFYPREAKVQWKVDNALQSGNSQESVTEQDSKDSTYSLSSTLTLSKADYEKHKVYACEVTHQGLSSPVTKSFNRGEC
2 | 4000 nM | 2.7 fold | 2.6 fold | 2.2 fold | 10.7 fold | 0.09 fold | 2.7 fold | 1.6 fold | 0.09 fold | M103205H795-MY392/M103202L889-SK1 (antibody, human IgG1, kappa, Substitutions introduced into M103205H795-SG1, expressed with M103202L889-SK1 as light chain; EU numbering) heavy: QVTLKESGPVLVKPTETLTLTCTVSGIDLSHDDISWVRQAPGKGLEWVGIISYAGSTYYASWAKGRLTISKDTSKNQVVLTMTNMDPVDTATYYCARGVPAYSHGGDLWGQGTLVTVSSASTKGPSVFPLAPSSKSTSGGTAALGCLVKDYFPEPVTVSWNSGALTSGVHTFPAVLQSSGLYSLSSVVTVPSSSLGTQTYICNVNHKPSNTKVDKKVEPKSCDKTHTCPPCPAPELLTGPSVFLFPPKPKDTLMISRTPEVTCVVVDVSDEDPEVKFNWYVDGVEVHNAKTKPREEQYNLTYRVVSVLTVLHQDWLNGKEYKCKVSNKALPKPIEKTISKAKGQPREPQVYTLPPSREEMTKNQVSLTCLVKGFYPSDIAVEWESNGQPENNYKTTPPVLDSDGSFFLYSKLTVDKSRWQQGNVFSCSVMHEALHNHYTQKSLSLSP light: DIVMTQSPATLSLSPGERATLSCTSSQSVYHANWLSWFQQKPGQPPKLLIYWASTLAYGVPSRFSGSGSGTDFTLTISSLQPEDAATYYCAGGYGGGRYAFGQGTKVEIKRTVAAPSVFIFPPSDEQLKSGTASVVCLLNNFYPREAKVQWKVDNALQSGNSQESVTEQDSKDSTYSLSSTLTLSKADYEKHKVYACEVTHQGLSSPVTKSFNRGEC
3 | 24000 nM | 1.5 fold | 2.9 fold | 2.3 fold | 1.8 fold | 0.15 fold | 1.8 fold | 1.6 fold | 0.1 fold | M103205H795-MY400/M103202L889-SK1 (antibody, human IgG1, kappa, Substitutions introduced into M103205H795-SG1, expressed with M103202L889-SK1 as light chain; EU numbering) heavy: QVTLKESGPVLVKPTETLTLTCTVSGIDLSHDDISWVRQAPGKGLEWVGIISYAGSTYYASWAKGRLTISKDTSKNQVVLTMTNMDPVDTATYYCARGVPAYSHGGDLWGQGTLVTVSSASTKGPSVFPLAPSSKSTSGGTAALGCLVKDYFPEPVTVSWNSGALTSGVHTFPAVLQSSGLYSLSSVVTVPSSSLGTQTYICNVNHKPSNTKVDKKVEPKSCDKTHTCPPCPAPELLTGPSVFLFPPKPKDTLMISRTPEVTCVVVDVSDEDPEVKFNWYVDGVEVHNAKTKPREEQYNSTYRVVSVLTVLHQDWLNGKEYKCKVSNKALPKEIEKTISKAKGQPREPQVYTLPPSREEMTKNQVSLTCLVKGFYPSDIAVEWESNGQPENNYKTTPPVLDSDGSFFLYSKLTVDKSRWQQGNVFSCSVMHEALHNHYTQKSLSLSP light: DIVMTQSPATLSLSPGERATLSCTSSQSVYHANWLSWFQQKPGQPPKLLIYWASTLAYGVPSRFSGSGSGTDFTLTISSLQPEDAATYYCAGGYGGGRYAFGQGTKVEIKRTVAAPSVFIFPPSDEQLKSGTASVVCLLNNFYPREAKVQWKVDNALQSGNSQESVTEQDSKDSTYSLSSTLTLSKADYEKHKVYACEVTHQGLSSPVTKSFNRGEC
4 | 1500 nM | 5.8 fold | 2.6 fold | 3.2 fold | 1.6 fold | 0.24 fold | 4.2 fold | 2.6 fold | 0.23 fold | M103205H795-MY389/M103202L889-SK1 (antibody, human IgG1, kappa, Substitutions introduced into M103205H795-SG1, expressed with M103202L889-SK1 as light chain; EU numbering) heavy: QVTLKESGPVLVKPTETLTLTCTVSGIDLSHDDISWVRQAPGKGLEWVGIISYAGSTYYASWAKGRLTISKDTSKNQVVLTMTNMDPVDTATYYCARGVPAYSHGGDLWGQGTLVTVSSASTKGPSVFPLAPSSKSTSGGTAALGCLVKDYFPEPVTVSWNSGALTSGVHTFPAVLQSSGLYSLSSVVTVPSSSLGTQTYICNVNHKPSNTKVDKKVEPKSCDKTHTCPPCPAPELLTGPLVFLFPPKPKDTLMISRTPEVTCVVVDVSDEDPEVKFNWYVDGVEVHNAKTKPREEQYNSTYRVVSVLTVLHQDWLNGKEYKCKVSNKALPKPIEKTISKAKGQPREPQVYTLPPSREEMTKNQVSLTCLVKGFYPSDIAVEWESNGQPENNYKTTPPVLDSDGSFFLYSKLTVDKSRWQQGNVFSCSVMHEALHNHYTQKSLSLSP light: DIVMTQSPATLSLSPGERATLSCTSSQSVYHANWLSWFQQKPGQPPKLLIYWASTLAYGVPSRFSGSGSGTDFTLTISSLQPEDAATYYCAGGYGGGRYAFGQGTKVEIKRTVAAPSVFIFPPSDEQLKSGTASVVCLLNNFYPREAKVQWKVDNALQSGNSQESVTEQDSKDSTYSLSSTLTLSKADYEKHKVYACEVTHQGLSSPVTKSFNRGEC
5 | 1600 nM | 4.8 fold | 2.4 fold | 3 fold | 1.5 fold | 0.23 fold | 3.1 fold | 2.1 fold | 0.19 fold | M103205H795-MY388/M103202L889-SK1 (antibody, human IgG1, kappa, Substitutions introduced into M103205H795-SG1, expressed with M103202L889-SK1 as light chain; EU numbering) heavy: QVTLKESGPVLVKPTETLTLTCTVSGIDLSHDDISWVRQAPGKGLEWVGIISYAGSTYYASWAKGRLTISKDTSKNQVVLTMTNMDPVDTATYYCARGVPAYSHGGDLWGQGTLVTVSSASTKGPSVFPLAPSSKSTSGGTAALGCLVKDYFPEPVTVSWNSGALTSGVHTFPAVLQSSGLYSLSSVVTVPSSSLGTQTYICNVNHKPSNTKVDKKVEPKSCDKTHTCPPCPAPELLTGPIVFLFPPKPKDTLMISRTPEVTCVVVDVSDEDPEVKFNWYVDGVEVHNAKTKPREEQYNSTYRVVSVLTVLHQDWLNGKEYKCKVSNKALPKPIEKTISKAKGQPREPQVYTLPPSREEMTKNQVSLTCLVKGFYPSDIAVEWESNGQPENNYKTTPPVLDSDGSFFLYSKLTVDKSRWQQGNVFSCSVMHEALHNHYTQKSLSLSP light: DIVMTQSPATLSLSPGERATLSCTSSQSVYHANWLSWFQQKPGQPPKLLIYWASTLAYGVPSRFSGSGSGTDFTLTISSLQPEDAATYYCAGGYGGGRYAFGQGTKVEIKRTVAAPSVFIFPPSDEQLKSGTASVVCLLNNFYPREAKVQWKVDNALQSGNSQESVTEQDSKDSTYSLSSTLTLSKADYEKHKVYACEVTHQGLSSPVTKSFNRGEC
